Measurements published in patent publication US20050186203A1.

B1: murine anti-IGF-I receptor antibody EM164 (antibody, V domains shown)
VH: QVQLQQSGAELVKPGASVKLSCKASGYTFTSYWMHWVKQRPGQGLEWIGEINPSNGRTNYNEKFKRKATLTVDKSSSTAYMQLSSLTSEDSAVYYFARGRPDYYGSSKWYFDVWGAGTTVTVS
VL: DVLMTQTPLSLPVSLGDQASISCRSSQSIVHSNVNTYLEWYLQKPGQSPKLLIYKVSNRFSGVPDRFSGSGSGTDFTLRISRVEAEDLGIYYCFQGSHVPPTFGGGTKLEIKR
B2: Fab fragment of EM164 antibody (Fab, V domains shown)
VH: B1 VH
VL: B1 VL
modifications: here or on the partner: biotinylated with PEO-maleimide-biotin reagent in the captured format

What was measured:
Conditions in all cases: remark: other sources report otherwise
[1] = molecular target: T1, human IGF-I receptor of human tumor cells (MCF-7, NCI-H838, SaOS-2 and other lines) (human), P08069; assay: displacement of pre-bound biotinylated IGF-I from MCF-7 cells by EM164 (10-100 µg/mL) at 4° C., 2 h; capture ELISA
[2] = molecular target: T2, purified full-length human IGF-I receptor (affinity purified; directly coated or biotinylated and captured on streptavidin) (human), P08069; assay: ELISA titration on biotinylated human IGF-I receptor captured on streptavidin; non-linear regression for one-site binding
[3] = molecular target: T2, purified full-length human IGF-I …; assay: ELISA, hybridoma supernatant on plate-coated purified human IGF-I receptor, anti-mouse IgG Fc-HRP
[4] = molecular target: T1, human IGF-I receptor of human tumor …; assay: displacement of pre-bound biotinylated IGF-I from MCF-7 cells by EM164 (10-100 µg/mL) at 37° C., 30 min; capture ELISA
[5] = molecular target: T2, purified full-length human IGF-I …; assay: ELISA titration on human IGF-I receptor, similar to that of the whole antibody

Binder	% displacement of pre-bound biotinylated IGF-I [1] [%]	Kd [2] [pM]	absorbance units (ELISA, 405 nm) (absorbance units) [3]	% displacement of pre-bound biotinylated IGF-I [4] [%]	Kd [5] [pM]
B1	50	100	1.2	90	
B2					300
